Patent publication US20110300138A1 (published 2011)
Like-named read-outs stand apart in the source and are kept apart here.

Legend:
[1] = target: TSHR with His105 mutated to Ala (expressed in CHO cells) (human) (UniProt P16473); assay: cell-based or functional assay
[2] = target: wild type TSHR expressed in CHO cells (human) (UniProt P16473); assay: cell-based or functional assay
[3] = target: TSH receptor (TSHR), full length human, coated on tubes (human) (UniProt P16473); assay: inhibition of 125I-TSH binding to TSHR coated tubes; 0.1 µg/mL, diluted in HBD serum pool
[4] = target: TSHR with Asp276 mutated to Ala, expressed in CHO cells (human) (UniProt P16473); assay: cell-based or functional assay
[5] = target: TSHR with Asp43 mutated to Ala, expressed in CHO cells (human) (UniProt P16473); assay: cell-based or functional assay
[6] = target: TSH receptor (TSHR), full length human, coated on tubes (human) (UniProt P16473); assay: inhibition of 125I-K1-18 IgG binding to TSHR coated tubes; competitor 125I-K1-18 IgG; negative control sample at 0.01 µg/mL in HBD serum
[7] = target: TSH receptor (TSHR), full length human, coated on tubes (human) (UniProt P16473); assay: inhibition of 125I-TSH binding to TSHR coated tubes; 1 µg/mL, diluted in HBD serum pool
[8] = target: TSHR with Arg255 mutated to Asp expressed in CHO cells (human) (UniProt P16473); assay: cell-based or functional assay
[9] = target: wild type TSHR expressed in CHO cells (human) (UniProt P16473); assay: cell-based or functional assay; remark: listed apart in the source
[10] = target: thyroid stimulating hormone receptor (full length human TSHR) (human) (UniProt P16473); assay: ELISA: inhibition of M22 Fab-peroxidase (competitor) binding to TSHR coated wells; 1 µg/mL, diluted in HBD serum pool
[11] = target: thyroid stimulating hormone receptor (TSHR), full length, coated on tubes (human) (UniProt P16473); assay: inhibition of 125I-TSH binding, TSHR coated tubes; antibody 100 µg/mL in HBD serum pool
[12] = target: human thyroid stimulating hormone receptor (TSHR), full length (human) (UniProt P16473); assay: 125I-K1-70 Fab (competitor) binding to TSHR coated tubes; test sample 0.01 µg/mL in assay buffer
[13] = target: human thyroid stimulating hormone receptor (TSHR), full length (human) (UniProt P16473); assay: 125I-K1-70 Fab (competitor) binding to TSHR coated tubes; test sample 100 µg/mL in assay buffer
[14] = target: human TSH receptor (full length) coated on ELISA plate wells (human) (UniProt P16473); assay: TSH-biotin binding inhibition ELISA, TSHR coated wells; 0.01 µg/mL in assay buffer + 100 µg/mL 5B3 IgG
[15] = target: human thyroid stimulating hormone receptor (TSHR), full length (human) (UniProt P16473); assay: 125I-K1-18 Fab competition, TSHR coated tubes; 0.1 µg/mL in assay buffer
[16] = target: human thyroid stimulating hormone receptor (TSHR), full length (human) (UniProt P16473); assay: 125I-K1-70 Fab (competitor) binding to TSHR coated tubes; test sample 10 µg/mL in HBD serum
[17] = target: thyroid stimulating hormone receptor (TSHR), full length, coated on tubes (human) (UniProt P16473); assay: inhibition of 125I-TSH binding, TSHR coated tubes; antibody 10 µg/mL in assay buffer
[18] = target: human thyroid stimulating hormone receptor (TSHR), full length (human) (UniProt P16473); assay: 125I-K1-70 Fab (competitor) binding to TSHR coated tubes; test sample 0.1 µg/mL in assay buffer
[19] = target: thyroid stimulating hormone receptor (TSHR), full length, coated on tubes (human) (UniProt P16473); assay: inhibition of 125I-TSH binding, TSHR coated tubes; antibody 10 µg/mL in HBD serum pool

## 5B3 IgG (antibody)
[1]
  % inhibition of TSH stimulation; 5B3 10 µg/mL: 0%
  % inhibition of TSH stimulation; 5B3 100 µg/mL: 0%
  Cyclic AMP produced; 5B3 10 µg/mL + TSH 3 ng/mL: 75.2 pmol/mL
  Cyclic AMP produced; 5B3 100 µg/mL + TSH 3 ng/mL: 66.7 pmol/mL
  Mutated/wild type (%) of cyclic AMP produced; 5B3 10 µg/mL + TSH 3 ng/mL: 82%
  Mutated/wild type (%) of cyclic AMP produced; 5B3 100 µg/mL + TSH 3 ng/mL: 50%
[2]
  % inhibition of TSH stimulation; 5B3 10 µg/mL: 2%
  Cyclic AMP produced; 5B3 10 µg/mL + TSH 3 ng/mL: 91.6 pmol/mL
  Cyclic AMP produced; 5B3 100 µg/mL + TSH 3 ng/mL: 134 pmol/mL
[3]
  Inhibition of binding (%): 4.4%
[4]
  Experiment 1; % inhibition of TSH stimulation; 5B3 10 µg/mL: 6%
  Experiment 1; % inhibition of TSH stimulation; 5B3 100 µg/mL: 4%
  Experiment 1; Mutated/wild type (%) of cyclic AMP produced; 5B3 10 µg/mL + TSH 3 ng/mL: 84%
  Experiment 1; Mutated/wild type (%) of cyclic AMP produced; 5B3 100 µg/mL + TSH 3 ng/mL: 94%
  Experiment 1; cyclic AMP produced; 5B3 10 µg/mL + TSH 3 ng/mL: 66.8 pmol/mL
  Experiment 1; cyclic AMP produced; 5B3 100 µg/mL + TSH 3 ng/mL: 68.5 pmol/mL
  Experiment 2; % inhibition of TSH stimulation; 5B3 10 µg/mL: 4%
  Experiment 2; % inhibition of TSH stimulation; 5B3 100 µg/mL: 0%
  Experiment 2; Mutated/wild type (%) of cyclic AMP produced; 5B3 10 µg/mL + TSH 3 ng/mL: 67%
  Experiment 2; Mutated/wild type (%) of cyclic AMP produced; 5B3 100 µg/mL + TSH 3 ng/mL: 75%
  Experiment 2; cyclic AMP produced; 5B3 10 µg/mL + TSH 3 ng/mL: 71.6 pmol/mL
  Experiment 2; cyclic AMP produced; 5B3 100 µg/mL + TSH 3 ng/mL: 75.9 pmol/mL
[5]
  % inhibition of TSH stimulation, 5B3 10 µg/mL, mutated TSHR: 0%
  % inhibition of TSH stimulation, 5B3 100 µg/mL, mutated TSHR: 4%
  Cyclic AMP produced (pmol/mL), 5B3 10 µg/mL + TSH 3 ng/mL, mutated TSHR: 73.7 pmol/mL
  Cyclic AMP produced (pmol/mL), 5B3 100 µg/mL + TSH 3 ng/mL, mutated TSHR: 58 pmol/mL
  Mutated/wild type (%), 5B3 10 µg/mL + TSH 3 ng/mL: 69%
  Mutated/wild type (%), 5B3 100 µg/mL + TSH 3 ng/mL: 56%
[6]
  Inhibition of binding (%): -8.1%
[7]
  Inhibition of binding (%): -4.9%
[8]
  % inhibition of TSH stimulation; 5B3 10 µg/mL: 0%
  % inhibition of TSH stimulation; 5B3 100 µg/mL: 0%
  Cyclic AMP produced; 5B3 10 µg/mL + TSH 3 ng/mL: 59.4 pmol/mL
  Cyclic AMP produced; 5B3 100 µg/mL + TSH 3 ng/mL: 62.2 pmol/mL
  Mutated/wild type (%) of cyclic AMP produced; 5B3 10 µg/mL + TSH 3 ng/mL: 86%
  Mutated/wild type (%) of cyclic AMP produced; 5B3 100 µg/mL + TSH 3 ng/mL: 75%
[9]
  % inhibition of TSH stimulation; 5B3 10 µg/mL: 0%
  % inhibition of TSH stimulation; 5B3 100 µg/mL: 0%
  Cyclic AMP produced; 5B3 10 µg/mL + TSH 3 ng/mL: 69.2 pmol/mL
  Cyclic AMP produced; 5B3 100 µg/mL + TSH 3 ng/mL: 83.4 pmol/mL

B1: 5C9 IgG (antibody, from another filing, V domains shown)
VH: EVQLVESGGGLIQPGGSLRLSCAASGFTVSSNYMSWVRQAPGKGLEWVSVTYSGGSTSYADSVKGRFTISRDNSKNTLYLQMNSLRAEDTAVYYCARGGRYCSSISCYARSGCDYWGQGTLVTVSS
VL: AIQMTQSPSSLSASVGDRVTITCRASQSISNYLNWYQQKPGKAPKLLIYAASSLQSGVPSRFSGSGSGTDFTLTISSLQPEDFATYYCQQSYSSPSTTFGQGTKLEIK
[10]
  Inhibition of binding (%): 7.8%
[11]
  Inhibition of binding (%): 35.3%
[12]
  Inhibition of binding (%): 10.9%
[13]
  Inhibition of binding (%): 93.3%
[14]
  % inhibition of TSH-biotin binding: 20.7%
[15]
  Inhibition of binding (%): 27.7%
[16]
  Inhibition of binding (%): 20.7%
[17]
  Inhibition of binding (%): 40.5%
[18]
  Inhibition of binding (%): 21.9%
[19]
  Inhibition of binding (%): 40.9%
